# Laboratory results published in PMC9076634, “Fibronectin binding protein B binds to loricrin and promotes corneocyte adhesion by Staphylococcus aureus” (Nature Communications, 2022).
# B1: fibronectin binding protein B (FnBPB) on S. aureus SH1000 4X (pFnBPB) cells (natural protein)
# chain: ASEQNNTTVEESGSSATESKASETQTTTNNVNTIDETQSYSATSTEQPSQSTQVTTEEAPKTVQAPKVETSRVDLPSEKVADKETTGTQVDIAQPSNVSEIKPRMKRSTDVTAVAEKEVVEETKATGTDVTNKVEVEEGSEIVGHKQDTNVVNPHNAERVTLKYKWKFGEGIKAGDYFDFTLSDNVETHGISTLRKVPEIKSTDGQVMATGEIIGERKVRYTFKEYVQEKKDLTAELSLNLFIDPTTVTQKGNQNVEVKLGETTVSKIFNIQYLGGVRDNWGVTANGRIDTLNKVDGKFSHFAYMKPNNQSLSSVTVTGQVTKGNKPGVNNPTVKVYKHIGSDDLAESVYAKLDDVSKFEDVTDNMSLDFDTNGGYSLNFNNLDQSKNYVIKYEGYYDSNASNLEFQTHLFGYYNYYYTSNLTWKNGVAFYSNNAQGDGKDKLKEPIIEHSTPIELEFKSEPPVEKHELTGTIEESNDSKPIDFEYHTAVEGAEGHAEGTIETEEDSIHVDFEESTHENSKHHADVVEYEEDTNPGGGQVTTESNLVEFDEDSTKGIVTGAVSDHTTIEDTKEYTTESNLIELVDELPEEHGQAQGPIEEITENNHHISHSGLGTENGHGNYGVIEEIEENSHVDIKSELGYEGGQNSGNQSFEEDTEEDKPKYEQGGNIVDIDFDSVPQIHGQNNGNQSFEEDTEKDKPKYEQGGNIIDIDFDSVPHIHGFNKHTEIIEEDTNKDKPNYQFGGHNSVDFEEDTLPQVSGHNEGQQTIEEDTTPPIVPPTPPTPEVPSEPETPTPPTPEVPSEPETPTPPTPEVPTEPGKPIPPAKEEPKKPSKPVEQGKVVTPVIEINEKVKAVVPTKKAQSKKSELPET
# Biological target: T1, recombinant GST-tagged human loricrin (GST-loricrin) (human, UniProt P23490 1-312)
# T1 construct: loricrin, human, full length; also called GST-tagged full length loricrin
# T1 sequence (looked up): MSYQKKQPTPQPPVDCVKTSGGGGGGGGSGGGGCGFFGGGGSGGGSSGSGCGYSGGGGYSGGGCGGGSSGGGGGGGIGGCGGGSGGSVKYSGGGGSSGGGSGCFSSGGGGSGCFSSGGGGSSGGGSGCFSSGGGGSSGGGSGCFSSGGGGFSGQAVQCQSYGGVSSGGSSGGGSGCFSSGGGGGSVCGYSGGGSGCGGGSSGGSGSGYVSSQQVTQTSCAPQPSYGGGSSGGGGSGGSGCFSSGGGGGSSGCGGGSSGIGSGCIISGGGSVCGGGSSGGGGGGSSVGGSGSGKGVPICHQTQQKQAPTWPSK
# Experiment: dynamic force spectroscopy (AFM); as the single-molecule force spectroscopy, retraction speeds 1, 2.5, 5 and 10 µm s^-1; Bell-Evans fit of the high-force regime (loading rates 1.4 × 10^4 to 5 × 10^5 pN s^-1)
# Conditions: one partner purified
binder,measurement,value
B1,koff,5.8e-09 s⁻¹
